This experiment has as its target reconstituted elongation complex (EC): His-tagged E. coli RNAP core complex on template DNA, non-template DNA … (E. coli, Core RNAP assembled with biotinylated 49-mer template/non-template DNA and RNA primer (nucleic acid sequences in the supplement). The text gives only 'RNAP core complex' from pIA900; alpha2-beta-beta'). The experiment can be described thus: SPR; BIAcore T200, SA chip; reconstituted EC on biotinylated 49-mer immobilised (550 RU after 1 M KCl wash); Mfd 0-640 nM flowed in SPR buffer (30 mM Tris/HCl pH 7.6, 40 mM KCl, 5 mM MgCl2, 0.005% P20, 0.25 mM EDTA, 0.5 mM DTT) with 0.5 mM ATPɣS; 20°C; 1:1 steady state affinity fit. The conditions noted are these: both partners purified. (In general: In SPR one partner is held on a chip, and binding of the other changes the refractive index at the surface.)

B1: Mfd, the bacterial transcription-repair coupling factor (wild type) (natural protein, E. coli, UniProt P30958 1-1148, looked up)
chain: MPEQYRYTLPVKAGEQRLLGELTGAACATLVAEIAERHAGPVVLIAPDMQNALRLHDEISQFTDQMVMNLADWETLPYDSFSPHQDIISSRLSTLYQLPTMQRGVLIVPVNTLMQRVCPHSFLHGHALVMKKGQRLSRDALRTQLDSAGYRHVDQVMEHGEYATRGALLDLFPMGSELPYRLDFFDDEIDSLRVFDVDSQRTLEEVEAINLLPAHEFPTDKAAIELFRSQWRDTFEVKRDPEHIYQQVSKGTLPAGIEYWQPLFFSEPLPPLFSYFPANTLLVNTGDLETSAERFQADTLARFENRGVDPMRPLLPPQSLWLRVDELFSELKNWPRVQLKTEHLPTKAANANLGFQKLPDLAVQAQQKAPLDALRKFLETFDGPVVFSVESEGRREALGELLARIKIAPQRIMRLDEASDRGRYLMIGAAEHGFVDTVRNLALICESDLLGERVARRRQDSRRTINPDTLIRNLAELHIGQPVVHLEHGVGRYAGMTTLEAGGITGEYLMLTYANDAKLYVPVSSLHLISRYAGGAEENAPLHKLGGDAWSRARQKAAEKVRDVAAELLDIYAQRAAKEGFAFKHDREQYQLFCDSFPFETTPDQAQAINAVLSDMCQPLAMDRLVCGDVGFGKTEVAMRAAFLAVDNHKQVAVLVPTTLLAQQHYDNFRDRFANWPVRIEMISRFRSAKEQTQILAEVAEGKIDILIGTHKLLQSDVKFKDLGLLIVDEEHRFGVRHKERIKAMRANVDILTLTATPIPRTLNMAMSGMRDLSIIATPPARRLAVKTFVREYDSMVVREAILREILRGGQVYYLYNDVENIQKAAERLAELVPEARIAIGHGQMRERELERVMNDFHHQRFNVLVCTTIIETGIDIPTANTIIIERADHFGLAQLHQLRGRVGRSHHQAYAWLLTPHPKAMTTDAQKRLEAIASLEDLGAGFALATHDLEIRGAGELLGEEQSGSMETIGFSLYMELLENAVDALKAGREPSLEDLTSQQTEVELRMPSLLPDDFIPDVNTRLSFYKRIASAKTENELEEIKVELIDRFGLLPDPARTLLDIARLRQQAQKLGIRKLEGNEKGGVIEFAEKNHVNPAWLIGLLQKQPQHYRLDGPTRLKFIQDLSERKTRIEWVRQFMRELEENAIA
notes: Mfd (transcription-repair coupling factor), E. coli; mfd gene without ypet inserted in vector pSH1017, plasmid pHG4137; called full-length Mfd in the cryo-EM section; No tag is stated; purified by conventional chromatography; In the SPR it was flowed with 0.5 mM ATPɣS; also called TRCF; wildtype Mfd; source: E. coli BL21(λDE3)recA, purified (ammonium sulfate, DEAE, heparin Sepharose)
As for B1, the Kd was 127 ± 6 nM.

By Kd is commonly meant the equilibrium constant for the complex coming apart. A higher Kd goes with a looser complex.

These data come from publication PMC9177983, “Mechanism of transcription modulation by the transcription-repair coupling factor” (Nucleic Acids Research, 2021).
